Tests used:
[1] = Western blot of UBAP2L, ccRCC cells; settings: glycan lost; control: shCtrl / untreated
[2] = CHX-chase, Western blot, ccRCC cells; settings: glycan lost; control: WT / shCtrl / untreated
[3] = UBAP2L/G3BP1 immunostaining, granules per cell; settings: glycan lost; control: sunitinib without OSMI-1
[4] = CCK-8 dose response, 786-O and Caki-1; settings: glycan lost; control: UBAP2L-WT overexpression
[5] = UBAP2L/G3BP1 immunostaining after sunitinib; settings: glycan lost; control: UBAP2L-WT overexpression

B1: UBAP2L: OSMI-1 (protein)
parent chain: MMTSVGTNRARGNWEQPQNQNQTQHKQRPQATAEQIRLAQMISDHNDADFEEKVKQLIDITGKNQDECVIALHDCNGDVNRAINVLLEGNPDTHSWEMVGKKKGVSGQKDGGQTESNEEGKENRDRDRDYSRRRGGPPRRGRGASRGREFRGQENGLDGTKSGGPSGRGTERGRRGRGRGRGGSGRRGGRFSAQGMGTFNPADYAEPANTDDNYGNSSGNTWNNTGHFEPDDGTSAWRTATEEWGTEDWNEDLSETKIFTASNVSSVPLPAENVTITAGQRIDLAVLLGKTPSTMENDSSNLDPSQAPSLAQPLVFSNSKQTAISQPASGNTFSHHSMVSMLGKGFGDVGEAKGGSTTGSQFLEQFKTAQALAQLAAQHSQSGSTTTSSWDMGSTTQSPSLVQYDLKNPSDSAVHSPFTKRQAFTPSSTMMEVFLQEKSPAVATSTAAPPPPSSPLPSKSTSAPQMSPGSSDNQSSSPQPAQQKLKQQKKKASLTSKIPALAVEMPGSADISGLNLQFGALQFGSEPVLSDYESTPTTSASSSQAPSSLYTSTASESSSTISSNQSQESGYQSGPIQSTTYTSQNNAQGPLYEQRSTQTRRYPSSISSSPQKDLTQAKNGFSSVQATQLQTTQSVEGATGSAVKSDSPSTSSIPPLNETVSAASLLTTTNQHSSSLGGLSHSEEIPNTTTTQHSSTLSTQQNTLSSSTSSGRTSTSTLLHTSVESEANLHSSSSTFSTTSSTVSAPPPVVSVSSSLNSGSSLGLSLGSNSTVTASTRSSVATTSGKAPPNLPPGVPPLLPNPYIMAPGLLHAYPPQVYGYDDLQMLQTRFPLDYYSIPFPTPTTPLTGRDGSLASNPYSGDLTKFGRGDASSPAPATTLAQPQQNQTQTHHTTQQTFLNPALPPGYSYTSLPYYTGVPGLPSTFQYGPAVFPVAPTSSKQHGVNVSVNASATPFQQPSGYGSHGYNTGVSVTSSNTGVPDISGSVYSKTQQSFEKQGFHSGTPAASFNLPSALGSGGPINPATAAAYPPAPFMHILTPHQQPHSQILHHHLQQDGQTGSGQRSQTSSIPQKPQTNKSAYNSYSWGAN
decreases: expression_or_secretion [1] | degradation_or_half_life [2] | other: stress granule formation [3]

B2: UBAP2L: S305A (protein)
parent chain: MMTSVGTNRARGNWEQPQNQNQTQHKQRPQATAEQIRLAQMISDHNDADFEEKVKQLIDITGKNQDECVIALHDCNGDVNRAINVLLEGNPDTHSWEMVGKKKGVSGQKDGGQTESNEEGKENRDRDRDYSRRRGGPPRRGRGASRGREFRGQENGLDGTKSGGPSGRGTERGRRGRGRGRGGSGRRGGRFSAQGMGTFNPADYAEPANTDDNYGNSSGNTWNNTGHFEPDDGTSAWRTATEEWGTEDWNEDLSETKIFTASNVSSVPLPAENVTITAGQRIDLAVLLGKTPSTMENDSSNLDPSQAPSLAQPLVFSNSKQTAISQPASGNTFSHHSMVSMLGKGFGDVGEAKGGSTTGSQFLEQFKTAQALAQLAAQHSQSGSTTTSSWDMGSTTQSPSLVQYDLKNPSDSAVHSPFTKRQAFTPSSTMMEVFLQEKSPAVATSTAAPPPPSSPLPSKSTSAPQMSPGSSDNQSSSPQPAQQKLKQQKKKASLTSKIPALAVEMPGSADISGLNLQFGALQFGSEPVLSDYESTPTTSASSSQAPSSLYTSTASESSSTISSNQSQESGYQSGPIQSTTYTSQNNAQGPLYEQRSTQTRRYPSSISSSPQKDLTQAKNGFSSVQATQLQTTQSVEGATGSAVKSDSPSTSSIPPLNETVSAASLLTTTNQHSSSLGGLSHSEEIPNTTTTQHSSTLSTQQNTLSSSTSSGRTSTSTLLHTSVESEANLHSSSSTFSTTSSTVSAPPPVVSVSSSLNSGSSLGLSLGSNSTVTASTRSSVATTSGKAPPNLPPGVPPLLPNPYIMAPGLLHAYPPQVYGYDDLQMLQTRFPLDYYSIPFPTPTTPLTGRDGSLASNPYSGDLTKFGRGDASSPAPATTLAQPQQNQTQTHHTTQQTFLNPALPPGYSYTSLPYYTGVPGLPSTFQYGPAVFPVAPTSSKQHGVNVSVNASATPFQQPSGYGSHGYNTGVSVTSSNTGVPDISGSVYSKTQQSFEKQGFHSGTPAASFNLPSALGSGGPINPATAAAYPPAPFMHILTPHQQPHSQILHHHLQQDGQTGSGQRSQTSSIPQKPQTNKSAYNSYSWGAN
decreases: degradation_or_half_life [2] | other: sunitinib resistance of cells, IC50 [4] | other: stress granule formation [5]
